These results are taken from the nanobody polyreactivity screen of Harvey et al. (2022).

The nature of the series: yeast display, Sf9 membrane polyspecificity reagent, FACS + sequencing; frameworks hold sequencing errors. In short, it runs like this: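 Galactose-induced (36–48 hours) yeast carrying a synthetic nanobody display library were exposed to 10% biotinylated, detergent-solubilized Sf9 membrane reagent at 4 °C for 1 hour. FACS followed streptavidin microbead enrichment, using low and high (top ~1%) gates for expression (anti-HA) and reagent binding (streptavidin). Colony PCR, MiSeq 2 × 250 sequencing and CDR-length filtering followed. Labels for polyreactivity reflect the gate of origin.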
For the sequence “QVQLVESGGGLVQAGGSLRLSCAASGRTFDYNAMGWYRQAPGKEREFVAAITKSGGSTNYADSVKGRFTISRDNEKNTVYLQMNSLKPEDTAVYYCNATYVVIHEYDYWGQGTQVTVSS”, the “polyreactivity (PSR sort gate)” value is given as “low polyreactivity”.
As for “QVQLVESGGGLVQAGGSLRLSCAASGRTFDYYAMGWYRQAPGKERELVAAISSSGGSTYYADSVKARFTISRDNAKNTVYLQMNSLKPEDTEVYYCNAYAYRFNHIHHIYTTVGEYWGQGTQVTVSS”, the entry is “high polyreactivity”; as for “QVQLVESGGGLVQAGGSLRLSCAASGRTFDYYAMGWYRQAPGKERELVAAITKDGGSTYYADSVKGRFTISRDNAKNTVYLQMNSLIPEDTAVYYCAADGPPQYYDPIHYDYWGQGTQVTVSS”, “low polyreactivity”; as for “QVQLVESGGGLVQAGGSLRLSCAASGRTFDYYVMGWYRQAPGKERELVAAITSGGSTYYADSVKGRFTISRDNAKNTVYLQMNSMKPEDTAVYYCNNVRGAFYSHLFDYWGQGTQVTVSS”, “high polyreactivity”.
In the case of “QVQLVESGGGLVQAGGSLRLSCAASGRTFEGNAMGWSRQAPGKERELVAAISTSGGRTYYADSVKGRFTISRDNAKKSVYLQMNSLKPEDTAVYYCATSFYVYPTYYILDYWGQGTQVTVSS”, the “polyreactivity (PSR sort gate)” value is “low polyreactivity”.
The value for “QVQLVESGGGLVQAGGSLRLSCAASGRTFEGNAMGWYRQAPGKESELVAAITSGGRTNYADSVKGRFTISRDNAKNTVYLQMNCLKPEDPAVYYCAVETRDRSNYFPGQAYDYWGQGTQVTVSS” was “low polyreactivity”; that for “QVQLVESGGGLVQAGGSLRLSCAASGRTFENYAMGWYRQAPGKERELVAAISKSGGSTYYADSVKGRFTISRDNAKNTVYLQMNSLKPEDTAVYYCATRLTSAVGRYLYDFGYWGQGTQVTVSS” was “high polyreactivity”.
The value for “QVQLVESGGGLVQAGGSLRLSCAASGRTFERNAMGWYRQAPGKEREFVAAITEIGGSTYYADSVKGRFTISRDNAKNTVYLQMNSLKPEDTAVYYCAKDGTYSPYDYWGQGTQVTVSS” was “low polyreactivity”; that for “QVQLVESGGGLVQAGGSLRLSCAASGRTFERNAMGWYRQAPGKERELVAAITWSGVSTYYADSVKGRFTISRDNAKNTVYLQMNSLKPEDTAVYYCAADWDWRFHRMNYWGQGTQVTVSS” was “low polyreactivity”.
In the case of “QVQLVESGGGLVQAGGSLRLSCAASGRTFERNTMRWYRQAPGKERELVAAISYDGGSTYYADSVKGRFTISRDNAKNTVYFQLNSLKPEDRAVYYCNAGGSEIYRSPFDYWGQGTQVTVSS”, the “polyreactivity (PSR sort gate)” value is listed as “low polyreactivity”.
The value for “QVQLVESGGGLVQAGGSLRLSCAASGRTFEYYAMGWYRQAPGKERELVAGISWSGGSTYYADSVKGRFTISRDNAKNTVYLQMNSLKPEDTAVYYCNARYLPRSTIYDYWGQGTQVTVSS” was “high polyreactivity”.
Turning to “QVQLVESGGGLVQAGGSLRLSCAASGRTFFDHALGWYRPAPGKERELVAAITSVGSTYYADSVKGRFTISRDNAKNTVYLQMNSLKPEDTAVYYCAAHRHIHYTDARMDYWGQGTQVTVSS”, the “polyreactivity (PSR sort gate)” value is recorded as “low polyreactivity”.
The value for “QVQLVESGGGLVQAGGSLRLSCAASGRTFFDYTMGWYRQAPGNERELDAAITGGDGSTYYADSVKGRFTISRDNAKNTVYLEMTSLKPEDTAVYYCAAEYTRTYWYAAMDYWGQGTQVTVSS” was “low polyreactivity”; that for “QVQLVESGGGLVQAGGSLRLSCAASGRTFFFNAMGWYRQAPGKERELVARISSSGRTNYADSVKGRFTISRDNAKNTVYLQMNSLKPEDTAVYYCAAGRYGLYKSDRSPEYGYWGQGTQVTVSS” was “high polyreactivity”.
As for “QVQLVESGGGLVQAGGSLRLSCAASGRTFFFYAMGWYRQAPGKERELVADITWSDGTTYYAESVKGRFTISRDNAKNTVYLQMNSLKPEDTAVYYCAKVRTGQSRSVGYDYWGQGTQVTVSS”, the entry is “low polyreactivity”.
As for “QVQLVESGGGLVQAGGSLRLSCAASGRTFFGYAMGWYRQAPGKERELVAAISSGGSTYYADSVKGRFTISRDNAKNTVYLQMNSLKPEDTAVYYCAARSFTTRRSVIRNYWGQGTQVTVSS”, the entry is “high polyreactivity”.
Regarding “QVQLVESGGGLVQAGGSLRLSCAASGRTFFGYARGWYRQAPGKEREFVARISWRGTSTTYADSVKGRFTISRDNAKNTVYLEMNSLKPEDTAVYYCAASPYGLRVYFTVGYWGQGTQVTVSS”, the “polyreactivity (PSR sort gate)” value is reported as “high polyreactivity”.
The value for “QVQLVESGGGLVQAGGSLRLSCAASGRTFFKNAMGWYRQAPGKERELVAAITSSGGTTYYADSVKGRFTISRDNAKNTVYLQMISLKPEDTAVYYCATRKYPIRYGYGYWGQGTQVTVSS” was “high polyreactivity”; that for “QVQLVESGGGLVQAGGSLRLSCAASGRTFFKYAMGGYRQAPGKERELVAAITGRGDRTYYADSVKGRFTISRDNAKNTVYLQMNSLKPEDTAVYYCAAGAPAHHASFYYWGQGTQVTVSS” was “high polyreactivity”; that for “QVQLVESGGGLVQAGGSLRLSCAASGRTFFKYAMGWYRQAPGKERELVAAITWGGDRTFYADSVKGRFTISRDNAKNTVYLQMNSMKADETAVYYCAAEVLPNVYVYQSARGFYYWGQGTQVTVSS” was “high polyreactivity”.
The value for “QVQLVESGGGLVQAGGSLRLSCAASGRTFFPYAMGWYRPAPGKEREFVAAITKTDDSTYYADSVKGRFTISRDNAKNTVYLQMNSLKPEDTAVYYCNAGDTQIRFYYWGQGTQVTVSS” was “low polyreactivity”.
As for “QVQLVESGGGLVQAGGSLRLSCAASGRTFFPYAMGWYRQAAGKERELVDAISLDDDTTYYADSVKGRFTISRDTAQNTVYLQMNSLKPEDTAVYYCATDGIVIYGGYYTGYDYWGQGTQVTVSS”, the entry is “high polyreactivity”.
In the case of “QVQLVESGGGLVQAGGSLRLSCAASGRTFFPYVMGWYRQAPGKERELVATITWGGVSTYYADSVKGRFTISRDNAKNTVYLQMNSLKPEDTAVYYCAARYYRWRTIPEYYYWGQGTQVTVSS”, the “polyreactivity (PSR sort gate)” value was “high polyreactivity”.
The value for “QVQLVESGGGLVQAGGSLRLSCAASGRTFFRYAMGWYRQAPGKERELVAAISSRGGSTYYADSVKGRFTISRDNAKNTVYLQMNSLKPEDTAVYYCNADAFINFILYDYWGQGTQVTVSS” was “high polyreactivity”.
The value for “QVQLVESGGGLVQAGGSLRLSCAASGRTFFTNAMGWSRQAPGKERELVATISQSGGSTYYADSVKGRFTISRDNAKNTVYLQMNCLKPEDTAVYYCAALSRYWVVRMDYWGQGTHVTVSS” was “high polyreactivity”.
Regarding “QVQLVESGGGLVQAGGSLRLSCAASGRTFFTYAMGWYRQAPGKERELVAAITWSGGSTYYADSVKGRFTISRDNAKNTVYLQMNSLKPEDTAVYYCAADGSVAYYSAFGSVQIWYYYWGQGTQVTVSS”, the “polyreactivity (PSR sort gate)” value is listed as “low polyreactivity”.
On to “QVQLVESGGGLVQAGGSLRLSCAASGRTFFVYAMGWYRQAPVKERELVAAISNTGGRTYYADSVKGRFTISRDNAKNTVYLQMNSLKPEDTAVYYCAAPYSGPYRSYEYYWGQGTQVTVSS”, for which the “polyreactivity (PSR sort gate)” value is “low polyreactivity”.
“QVQLVESGGGLVQAGGSLRLSCAASGRTFFVYTMGWYRQAPGKERELVAAITSDTSTTYADSVKGRFTISRDNAKNTVYLQMNSLKPEDTAVYYCAAEGYVGYYDYDYWGQGTQVTVSS”: the “polyreactivity (PSR sort gate)” value is “low polyreactivity”.
The value for “QVQLVESGGGLVQAGGSLRLSCAASGRTFFWNAMGWYRQAPGKERELVATISRSGGSTYYADSVKGRFTISRDNAKNTVYLQMNSLKPEDTAVYYCAAQYVRRSRKYDYWGQGTQVTVSS” was “high polyreactivity”; that for “QVQLVESGGGLVQAGGSLRLSCAASGRTFFWYAMGWYRQAPGKERELVADISSSGGSTYYADSVKGRFTISRDNAKNTVYLQMNSLKPEDTAVYYCAALSPWWRGGYNYWGQGTQVTVSS” was “high polyreactivity”.
Take “QVQLVESGGGLVQAGGSLRLSCAASGRTFFYNAMGWYRQAPGKERELVARITQSGVITYYADSVKGRFTISRDNAKNTVYLQMNSLKPEDTAVYYCNADDTYSPFRGVSYDYWGQGTQVTVSS”: the “polyreactivity (PSR sort gate)” value is “low polyreactivity”.
In the case of “QVQLVESGGGLVQAGGSLRLSCAASGRTFFYYAMGWYRQAPGKDRELVAAISWGGGRTYYADSVKGRFTISRDNAKNTVYLQMNSLKPEETAVYYCAAGVYTGQHEYDYWGQGTQVTVSS”, the “polyreactivity (PSR sort gate)” value is given as “low polyreactivity”.
The value for “QVQLVESGGGLVQAGGSLRLSCAASGRTFFYYAMGWYRQAPGKERELVAGITSTGSSTYYADSVKGRFTISRDNAKNTLYLQMNSLKPEDTAVYYCAADRYTTYSGQWSYPYDYWGQGTQVTVSS” was “low polyreactivity”.
As for “QVQLVESGGGLVQAGGSLRLSCAASGRTFFYYKMGLSRQAPGKESELVATISWRGGSTYYADSVKGRFTISRDNAKNTVYLHINSLNPEDTSVFYCAARYRSRFDSWGQGSQVTVSS”, the entry is “high polyreactivity”.
As for “QVQLVESGGGLVQAGGSLRLSCAASGRTFGENTMGWYRQAPGKERELVASITWSGDSTFYADSVKGRFTISRDNAKNTVYLQMNSLKPEDTAVYYCARDDYYGSYGYDYWGQGTQVTVSS”, the entry is “low polyreactivity”; as for “QVQLVESGGGLVQAGGSLRLSCAASGRTFGFNVMGWYRQAPGKEREFVAAITRSGGSTYYADSVKGRFTISRDNAKNTVYLQMNSLKPEDTAVYYCAAYKFSARYYYWGQGTQVTVSS”, “high polyreactivity”.
“QVQLVESGGGLVQAGGSLRLSCAASGRTFGFYAMGWYRQAPGKERELVATITYRGSGGSTYYADSVKGRFTISRDNAKNTVYLQMNSLKPEDTAVYYCAADKRYSRYFSFDYWGQGTQVTVSS”: the “polyreactivity (PSR sort gate)” value is given as “high polyreactivity”.
The value for “QVQLVESGGGLVQAGGSLRLSCAASGRTFGGNAMGWYRQAPGKERELVAAISSGGSTNYADSVKGRFTISRDYAKNTVYLQMNSLKPEDSAVYYCAAGWYWWARYDYWGQGTQVTVSS” was “low polyreactivity”; that for “QVQLVESGGGLVQAGGSLRLSCAASGRTFGGNAMGWYRQAPGKERELVAAITVSAGHTYYADSVKGRFTISRDNAKNTVYLQMNSLKPEDTAVYYCAAGVPYYWSYVWKHPRYDHWGQGTQVTVSS” was “low polyreactivity”; that for “QVQLVESGGGLVQAGGSLRLSCAASGRTFGGNVMAWYRHAPGKERELVAAITWSGGSTYYADSVKGRFTISRDNAKNTVYVQMNSLKPEDTAVYYCNALWVWYRGSSVRWVGGYDYWGQGTQVTVSS” was “high polyreactivity”.
